B1: B-cell CLL/lymphoma 9 protein (Homo sapiens), O00512 (parent)
chain: MHSSNPKVRSSPSGNTQSSPKSKQEVMVRPPTVMSPSGNPQLDSKFSNQGKQGGSASQSQPSPCDSKSGGHTPKALPGPGGSMGLKNGAGNGAKGKGKRERSISADSFDQRDPGTPNDDSDIKECNSADHIKSQDSQHTPHSMTPSNATAPRSSTPSHGQTTATEPTPAQKTPAKVVYVFSTEMANKAAEAVLKGQVETIVSFHIQNISNNKTERSTAPLNTQISALRNDPKPLPQQPPAPANQDQNSSQNTRLQPTPPIPAPAPKPAAPPRPLDRESPGVENKLIPSVGSPASSTPLPPDGTGPNSTPNNRAVTPVSQGSNSSSADPKAPPPPPVSSGEPPTLGENPDGLSQEQLEHRERSLQTLRDIQRMLFPDEKEFTGAQSGGPQQNPGVLDGPQKKPEGPIQAMMAQSQSLGKGPGPRTDVGAPFGPQGHRDVPFSPDEMVPPSMNSQSGTIGPDHLDHMTPEQIAWLKLQQEFYEEKRRKQEQVVVQQCSLQDMMVHQHGPRGVVRGPPPPYQMTPSEGWAPGGTEPFSDGINMPHSLPPRGMAPHPNMPGSQMRLPGFAGMINSEMEGPNVPNPASRPGLSGVSWPDDVPKIPDGRNFPPGQGIFSGPGRGERFPNPQGLSEEMFQQQLAEKQLGLPPGMAMEGIRPSMEMNRMIPGSQRHMEPGNNPIFPRIPVEGPLSPSRGDFPKGIPPQMGPGRELEFGMVPSGMKGDVNLNVNMGSNSQMIPQKMREAGAGPEEMLKLRPGGSDMLPAQQKMVPLPFGEHPQQEYGMGPRPFLPMSQGPGSNSGLRNLREPIGPDQRTNSRLSHMPPLPLNPSSNPTSLNTAPPVQRGLGRKPLDISVAGSQVHSPGINPLKSPTMHQVQSPMLGSPSGNLKSPQTPSQLAGMLAGPAAAASIKSPPVLGSAAASPVHLKSPSLPAPSPGWTSSPKPPLQSPGIPPNHKAPLTMASPAMLGNVESGGPPPPTASQPASVNIPGSLPSSTPYTMPPEPTLSQNPLSIMMSRMSKFAMPSSTPLYHDAIKTVASSDDDSPPARSPNLPSMNNMPGMGINTQNPRISGPNPVVPMPTLSPMGMTQPLSHSNQMPSPNAVGPNIPPHGVPMGPGLMSHNPIMGHGSQEPPMVPQGRMGFPQGFPPVQSPPQQVPFPHNGPSGGQGSFPGGMGFPGEGPLGRPSNLPQSSADAALCKPGGPGGPDSFTVLGNSMPSVFTDPDLQEVIRPGATGIPEFDLSRIIPSEKPSQTLQYFPRGEVPGRKQPQGPGPGFSHMQGMMGEQAPRMGLALPGMGGPGPVGTPDIPLGTAPSMPGHNPMRPPAFLQQGMMGPHHRMMSPAQSTMPGQPTLMSNPAAAVGMIPGKDRGPAGLYTHPGPVGSPGMMMSMQGMMGPQQNIMIPPQMRPRGMAADVGMGGFSQGPGNPGNMMF

Variants of: B1
Conditions: with ctnb1_human CTNNB1, P35222
Sequence of ctnb1_human CTNNB1, P35222 (P35222 whole entry): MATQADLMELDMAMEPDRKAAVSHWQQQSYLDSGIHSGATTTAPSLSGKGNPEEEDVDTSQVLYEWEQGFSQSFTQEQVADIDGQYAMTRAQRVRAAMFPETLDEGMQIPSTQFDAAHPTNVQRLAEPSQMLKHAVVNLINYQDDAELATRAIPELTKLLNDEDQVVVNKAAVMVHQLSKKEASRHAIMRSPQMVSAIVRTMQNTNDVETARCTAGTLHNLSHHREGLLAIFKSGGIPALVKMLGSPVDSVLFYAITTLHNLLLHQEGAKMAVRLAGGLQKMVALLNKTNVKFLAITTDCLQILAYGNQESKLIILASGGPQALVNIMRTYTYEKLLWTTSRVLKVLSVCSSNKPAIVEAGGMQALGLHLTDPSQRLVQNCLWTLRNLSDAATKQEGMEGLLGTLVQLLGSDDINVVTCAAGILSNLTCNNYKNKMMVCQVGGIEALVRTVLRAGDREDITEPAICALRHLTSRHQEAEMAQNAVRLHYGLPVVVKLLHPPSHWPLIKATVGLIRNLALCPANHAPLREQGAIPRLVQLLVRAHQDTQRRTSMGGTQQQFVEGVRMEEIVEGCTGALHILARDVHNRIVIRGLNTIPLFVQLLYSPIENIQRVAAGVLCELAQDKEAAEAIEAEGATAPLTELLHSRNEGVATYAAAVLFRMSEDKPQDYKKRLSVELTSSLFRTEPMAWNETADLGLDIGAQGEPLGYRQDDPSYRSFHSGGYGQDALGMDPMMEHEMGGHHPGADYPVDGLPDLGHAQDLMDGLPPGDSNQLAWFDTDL

Effect of a mutation on the interaction, decreasing interaction:
H358A
L366A
R359A
I369A

From IntAct's records for PubMed 17052462
